Source: the RNAGym collection of RNA variant scans (doi:10.7554/elife.80360)

B1: Hairpin Ribozyme (parent)
chain: GUCCUCUUUCACGUGCGCGUGAAAGAGAGAAGUGAACCAGAGAAACACACGUUGUGGUAUAUUACCUGGUA

Variants of: B1
Experiment: self-cleavage, relative activity (ratio to wild type); higher = more cleavage; co-transcriptional
C18U A59G showed a self-cleavage of 0.148.
Work on G19A A24U yielded a self-cleavage of 0.629.
Variant G17U U70C has a self-cleavage of 0.859.
G17U U70G gave a self-cleavage of 0.739.
C18G G29U gave a self-cleavage of 0.201.
C18G U33A gave a self-cleavage of 0.169.
In the case of G17U A47U, the self-cleavage is reported as 0.101.
C18A A64U gave a self-cleavage of 0.158.
With C18A A64G the self-cleavage was 0.61.
Work on C18A A30G yielded a self-cleavage of 0.115.
In the case of G19C U55C, the self-cleavage is reported as 0.271.
In the case of C18A G19C, the self-cleavage is reported as 0.802.
Work on G19A A30G yielded a self-cleavage of 0.149.
With G19A A30C the self-cleavage was 0.146.
C18U A28G showed a self-cleavage of 1.26.
G19A G32A gave a self-cleavage of 0.131.
With G19A G32U the self-cleavage was 0.175.
With C18U G34U the self-cleavage was 1.46.
Variant G19A A41U has a self-cleavage of 1.11.
In the case of G17U C46U, the self-cleavage is reported as 0.14.
For G19C G21U, the self-cleavage was 0.718.
Work on C18U C66A yielded a self-cleavage of 0.25.
For C18G C66A, the self-cleavage was 0.194.
For G17U A24C, the self-cleavage was 0.848.
G19C U60A showed a self-cleavage of 0.9.
In the case of G19C U60C, the self-cleavage is reported as 0.984.
With G19C U60G the self-cleavage was 0.541.
G19U A26U gave a self-cleavage of 0.682.
With G19U C66A the self-cleavage was 0.272.
G17U U53G gave a self-cleavage of 0.954.
Variant G17U U53A has a self-cleavage of 0.841.
With G17U G51U the self-cleavage was 0.798.
With G19A C50A the self-cleavage was 0.278.
For C18G U52G, the self-cleavage was 0.538.
Work on G19U A30G yielded a self-cleavage of 0.12.
In the case of G19U A30U, the self-cleavage is reported as 0.181.
Variant C18A A43U has a self-cleavage of 0.196.
C18A A43C showed a self-cleavage of 0.107.
G19U C65G gave a self-cleavage of 0.405.
Work on G19U C65A yielded a self-cleavage of 0.733.
For C18U U58C, the self-cleavage was 1.17.
With C18U U58G the self-cleavage was 0.991.
With C18G A41C the self-cleavage was 0.952.
For G19C A28C, the self-cleavage was 0.304.
Variant G19C A28G has a self-cleavage of 1.15.
G19A C46G showed a self-cleavage of 0.176.
Variant G17U A71U has a self-cleavage of 0.815.
In the case of C18G G27U, the self-cleavage is reported as 0.199.
In the case of G17U A59U, the self-cleavage is reported as 0.274.
Variant C18U U62C has a self-cleavage of 0.393.
G19U G32A showed a self-cleavage of 0.124.
In the case of G19A A36U, the self-cleavage is reported as 0.542.
G19A A36C showed a self-cleavage of 0.511.
Variant G19A G25U has a self-cleavage of 0.441.
G19A G25C showed a self-cleavage of 0.419.
In the case of C18A U58C, the self-cleavage is reported as 1.07.
G17U U62A showed a self-cleavage of 0.198.
Work on G17U U62G yielded a self-cleavage of 0.122.
C18U C46G showed a self-cleavage of 0.145.
With G17U A35G the self-cleavage was 1.02.
For G17U A35C, the self-cleavage was 1.03.
For G17U U67C, the self-cleavage was 0.184.
Variant G19A A35C has a self-cleavage of 0.987.
Variant G19A A35U has a self-cleavage of 0.607.
For G19A A35G, the self-cleavage was 1.01.
C18G A71G gave a self-cleavage of 0.932.
For G19C C66G, the self-cleavage was 0.245.
With G19U C50A the self-cleavage was 0.329.
For C18A A41G, the self-cleavage was 0.76.
Work on G17U U60G yielded a self-cleavage of 0.343.
With G19U A43C the self-cleavage was 0.101.
For C18U G40C, the self-cleavage was 0.0598.
Variant C18A G57A has a self-cleavage of 0.209.
Work on C18A G57C yielded a self-cleavage of 0.187.
Variant G19U A22U has a self-cleavage of 0.648.
Variant G19U C48G has a self-cleavage of 0.2.
G19C U58G showed a self-cleavage of 0.705.
Variant G19C U58C has a self-cleavage of 0.815.
C18G A61U showed a self-cleavage of 0.247.
In the case of C18U A36G, the self-cleavage is reported as 1.15.
C18U G69U gave a self-cleavage of 0.272.
For C18U G69C, the self-cleavage was 0.334.
G19C C46A gave a self-cleavage of 0.303.
With G19A A23G the self-cleavage was 0.948.
Variant C18U U63A has a self-cleavage of 0.229.
With C18U U63C the self-cleavage was 0.18.
C18U U63G showed a self-cleavage of 0.278.
G19A A64C gave a self-cleavage of 0.181.
Work on G19C U52A yielded a self-cleavage of 0.957.
C18U C50A gave a self-cleavage of 0.314.
G19U A28U gave a self-cleavage of 0.628.
For G19U A28C, the self-cleavage was 0.357.
G19A A59C gave a self-cleavage of 0.199.
For G19A U70C, the self-cleavage was 0.922.
For G17U U58A, the self-cleavage was 0.593.
Variant G17U U58C has a self-cleavage of 1.13.
For G17U U58G, the self-cleavage was 0.644.
Work on G19U G29A yielded a self-cleavage of 0.111.
Variant G19U G29U has a self-cleavage of 0.14.
Work on G19C U67A yielded a self-cleavage of 0.323.
For G19C U67G, the self-cleavage was 0.227.
C18A G25C gave a self-cleavage of 0.58.
C18A G25U gave a self-cleavage of 0.761.
For G19A G68U, the self-cleavage was 0.242.
With C18U A61G the self-cleavage was 0.276.
With G19C A30G the self-cleavage was 0.187.
With C18U A30C the self-cleavage was 0.21.
In the case of C18U A30G, the self-cleavage is reported as 0.151.
G19C A26G showed a self-cleavage of 0.692.
With C18U C48G the self-cleavage was 0.0965.
In the case of G19U C38U, the self-cleavage is reported as 0.481.
Variant G19U C38A has a self-cleavage of 0.141.
In the case of G19C U53A, the self-cleavage is reported as 0.861.
Variant C18U G19C has a self-cleavage of 0.89.
With C18G G68A the self-cleavage was 0.268.
Work on G19A G21C yielded a self-cleavage of 0.673.
C18A G42A showed a self-cleavage of 0.203.
For G19C C38U, the self-cleavage was 0.489.
For G19C C38A, the self-cleavage was 0.174.
Variant C18U G57U has a self-cleavage of 0.234.
In the case of C18U G57A, the self-cleavage is reported as 0.188.
With G19A C37G the self-cleavage was 0.188.
Variant C18A A36G has a self-cleavage of 0.972.
C18A A36U showed a self-cleavage of 0.593.
C18U gave a self-cleavage of 1.06.
C18A gave a self-cleavage of 1.06.
C18G showed a self-cleavage of 0.931.
Variant C18U A43G has a self-cleavage of 0.103.
C18G C48A showed a self-cleavage of 0.146.
In the case of C18G C48U, the self-cleavage is reported as 0.11.
C18G C48G gave a self-cleavage of 0.138.
In the case of G19A G69A, the self-cleavage is reported as 0.347.
Work on G19A G69C yielded a self-cleavage of 0.129.
With G19C U70A the self-cleavage was 0.673.
Work on G17U A41C yielded a self-cleavage of 0.997.
In the case of G17U A41G, the self-cleavage is reported as 1.08.
Variant C18A U53C has a self-cleavage of 1.01.
With G17U A61G the self-cleavage was 0.117.
Work on G17U C37A yielded a self-cleavage of 0.26.
Variant G17U A44C has a self-cleavage of 0.152.
Work on G17U A44U yielded a self-cleavage of 0.0838.
C18U A23G gave a self-cleavage of 0.857.
Work on G19C G29A yielded a self-cleavage of 0.112.
Variant G19A C65U has a self-cleavage of 0.265.
With G19A C65A the self-cleavage was 0.748.
G19A C65G gave a self-cleavage of 0.324.
With C18U A45C the self-cleavage was 0.218.
For C18U G32C, the self-cleavage was 0.142.
C18A U60C gave a self-cleavage of 1.1.
For G17U U52C, the self-cleavage was 0.816.
Variant G19A U67C has a self-cleavage of 0.186.
With C18A A45C the self-cleavage was 0.173.
C18G A45G gave a self-cleavage of 0.0821.
G17U G69A gave a self-cleavage of 0.382.
G17U U20G showed a self-cleavage of 0.642.
With G17U U20C the self-cleavage was 1.26.
In the case of C18A A35U, the self-cleavage is reported as 0.734.
C18A A35G gave a self-cleavage of 1.05.
C18G A26C showed a self-cleavage of 0.489.
For G17U A45U, the self-cleavage was 0.176.
G17U A45G gave a self-cleavage of 0.0728.
G19A G27U showed a self-cleavage of 0.237.
G19C A23C showed a self-cleavage of 0.696.
G19C A61U showed a self-cleavage of 0.25.
In the case of G19C A61G, the self-cleavage is reported as 0.144.
G19C G54U gave a self-cleavage of 0.626.
In the case of C18G A35G, the self-cleavage is reported as 1.24.
